This experiment has as its target NpuDnaE(C)_Hyg^R (90-341) (Nostoc punctiforme; Escherichia coli). The experiment is described as follows: cell-based or functional assay.

The results in this text go back to US20250154517A1.

On to Hyg^R(1-89)-NpuDnaE(N), for which the rooting of co-transformed poplar shoots on root induction medium supplied with Hygromycin turned out to be 80%.
